Test results: patent publication US20180037631A1 (Bristol-Myers Squibb, published 2018)
Changes are numbered by the printed parent chain. Names may count otherwise. “And” between values parts separate entries of the source, which are not always exact repeats. Identical values can stand only once.

B1: I1-GSGCGS8-E5 pegylated (designed binder)
chain: MGVSDVPRDLEVVAATPTSLLISWSARLKVARYYRITYGETGGNSPVQEFTVPKNVYTATISGLKPGVDYTITVYAVTRFRDYQPISINYRTEIEKGSGCGSGSGSGSGSGSGSGSVSDVPRDLEVVAATPTSLLISWWAPVDRYQYYRITYGETGGNSPVQEFTVPRDVYTATISGLKPGVDYTITVYAVTDYKPHADGPHTYHESPISINYRTEHHHHHH
modifications: PEG on the Cys of the GSGCGS8 linker
notes: alternative clone of I1-GS10-E5 pegylated; tail of first monomer EIEK (D to E); also called I1-GSGCGS8-E5(3)
B2: I1(S62C)-GS10-E5 pegylated (designed binder)
chain: B1 chain with S62C, C100S
modifications: PEG on Cys at position 62 of I1 (position of SEQ ID NO: 1)
notes: also called I1(S62C)-GS10-E5(5)
B3: I1(S91C)-GS10-E5 pegylated (designed binder)
chain: B1 chain with S87C, C100S
modifications: PEG on Cys at position 91 of I1 (position of SEQ ID NO: 1)
notes: also called I1(S91C)-GS10-E5(7)
B4: I1-GS10-E5(S62C) pegylated (designed binder)
chain: B1 chain with C100S, S176C
modifications: PEG on Cys at position 62 of E5 (position of SEQ ID NO: 1)
notes: also called I1-GS10-E5(S62C)(6)
B5: I1-GS10-E5 pegylated without the 6HIS tag (designed binder)
chain: B1 chain with E95D, C100S, H217I, H218D, H219K, H220P, H221C, H222Q
modifications: PEG on the Cys of the C-terminal Cys tail
notes: Whether the D-to-E change in the tail of the first monomer applies to this construct is not clear; also called I1-GS10-E5 pegylated(1)
B6: I1-GS10-E5(S91C) pegylated (designed binder)
chain: B1 chain with C100S, S210C
modifications: PEG on Cys at position 91 of E5 (position of SEQ ID NO: 1)
notes: also called I1-GS10-E5(S91C)(8)
B7: I1-GS10-E5-GSGC pegylated (designed binder)
chain: MGVSDVPRDLEVVAATPTSLLISWSARLKVARYYRITYGETGGNSPVQEFTVPKNVYTATISGLKPGVDYTITVYAVTRFRDYQPISINYRTEIEKGSGSGSGSGSGSGSGSGSGSVSDVPRDLEVVAATPTSLLISWWAPVDRYQYYRITYGETGGNSPVQEFTVPRDVYTATISGLKPGVDYTITVYAVTDYKPHADGPHTYHESPISINYRTEGSGCHHHHHH
modifications: PEG on the Cys of the GSGC tail of E5
notes: alternative clone of I1-GS10-E5 pegylated; also called I1-GS10-E5-GSGC(4)
B8: I1-GS10-E105 pegylated, His-tagged (designed binder)
chain: MGVSDVPRDLEVVAATPTSLLISWSARLKVARYYRITYGETGGNSPVQEFTVPKNVYTATISGLKPGVDYTITVYAVTRFRDYQPISINYRTEIDKGSGSGSGSGSGSGSGSGSGSVSDVPRDLEVVAATPTSLLISWDAPTSRYQYYRITYGETGGNSPVQEFTVPGGLSTATISGLKPGVDYTITVYAVTDYKPHADGPHTYHESPISINYRTEIDKPCQHHHHHH
modifications: 40 kDa branched PEG on the Cys of the C-terminal Cys tail
B9: I1-GS10-E85 pegylated, His-tagged (designed binder)
chain: MGVSDVPRDLEVVAATPTSLLISWSARLKVARYYRITYGETGGNSPVQEFTVPKNVYTATISGLKPGVDYTITVYAVTRFRDYQPISINYRTEIDKGSGSGSGSGSGSGSGSGSGSVSDVPRDLEVVAATPTSLLISWTQGSTHYQYYRITYGETGGNSPVQEFTVPGMVYTATISGLKPGVDYTITVYAVTDYFDRSTHEYKYRTTPISINYRTEIDKPCQHHHHHH
modifications: 40 kDa branched PEG on the Cys of the C-terminal Cys tail

The binders below were run against T1, IGF-IR on human tumour cells (H292, MCF-7, RH41) (human, UniProt P08069 31-1367) (assay: cell-based or functional assay).

First: B1
Second: B2
The “pIGFR IC50” value of the first is lower: 1.4 nM for the first, 1.9 nM for the second.

Compared with B3, B4 is lower in “pIGFR IC50” value: 6.2 nM for the first, 2.2 nM for the second.

Compared with B5, B6 is higher in “pIGFR IC50” value: 1.2 nM for the first, 2.1 nM for the second.

In the case of B7, the “pIGFR IC50” value is reported as 1.2 nM.

The binders below were run against T2, EGFR on the surface of human tumour cells (A431, H292) (human, UniProt P00533 25-1210) (assay: cell-based or functional assay).

Compared with B1, B2 is higher in “pEGFR IC50” value: 19.8 nM for the first, 21 nM for the second.

Going from B3 to B4, the “pEGFR IC50” value rises from 22.7 nM to 68.4 nM.

Going from B5 to B6, the “pEGFR IC50” value falls from 30 nM to 22.6 nM.

With B7 the “pEGFR IC50” value was 28.7 nM.

Compared with B1, B2 is higher in “pERK IC50” value: 8 nM for the first, 10 nM for the second.

Compared with B3, B4 is higher in “pERK IC50” value: 15 nM for the first, 30 nM for the second.

First: B5
Second: B6
The “pERK IC50” value of the first is lower: 11 nM for the first, 29 nM for the second.

For B7, the “pERK IC50” value was 19 nM.

The binders below were run against T3, Recombinant human EGFR-Fc (aa 1-645 of the extracellular domain of human EGFR fused to human Fc) (human, UniProt P00533 25-645) (assay: SPR Biacore, EGFR645-Fc; against I1-GS10-E5 Pegylated).
T3 construct: range 1-645; bought from R&D Systems; also called EGFR645-Fc; EGFR-Fc (HER-1); not shown: human Fc

First: B1
Second: B2
The “ΔKd (fold)” value of the first is higher: 0.7 fold for the first, 0.3 fold for the second.

Compared with B3, B4 is higher in “ΔKd (fold)” value: 0.2 fold for the first, 1.6 fold for the second.

First: B6
Second: B7
The “ΔKd (fold)” value of the first is lower: 0.2 fold for the first, 2 fold for the second.

Compared with B1, B2 is lower in “Δka (fold)” value: 1 fold for the first, 0.8 fold for the second.

Compared with B3, B4 is lower in “Δka (fold)” value: 0.7 fold for the first, 0.6 fold for the second.

Going from B6 to B7, the “Δka (fold)” value rises from 0.4 fold to 1.1 fold.

Going from B1 to B2, the “Δkd (fold)” value falls from 0.6 fold to 0.4 fold.

Going from B3 to B4, the “Δkd (fold)” value rises from 0.2 fold to 2.4 fold.

First: B6
Second: B7
The “Δkd (fold)” value of the first is lower: 0.4 fold for the first, 1.6 fold for the second.

Each binder was assayed against T4, IGF1R-Fc (extracellular domain of human IGF1R aa 1-932 fused to hinge and constant regions of human IgG1) (human, UniProt P08069 31-932) (assay: SPR Biacore, IGF1R-Fc).
T4 construct: range 1-932; made in house by transient transfection, purified on Protein A; also called IGF-IR-Fc; not shown: hinge and constant regions of human IgG1

Compared with B1, B2 is 2.4-fold higher in Kd: 0.29 nM for the first, 0.7 nM for the second. The first binds more tightly here.

First: B3
Second: B4
The Kd of the first is 28-fold higher: 7.16 nM for the first, 0.26 nM for the second.

B6 and B7 are within 1.5-fold of each other in Kd: 0.28 nM for the first, 0.25 nM for the second.

B1 and B2 are within 1.5-fold of each other in koff: 0.000245 s⁻¹ for the first, 0.000234 s⁻¹ for the second.

Going from B3 to B4, the koff falls from 0.000589 s⁻¹ to 0.000279 s⁻¹ (2.1-fold).

B6 and B7 are within 1.5-fold of each other in koff: 0.000281 s⁻¹ for the first, 0.000265 s⁻¹ for the second.

First: B1
Second: B2
The kon of the first is 2.6-fold higher: 852000 M⁻¹ s⁻¹ for the first, 334000 M⁻¹ s⁻¹ for the second.

Going from B3 to B4, the kon rises from 82200 M⁻¹ s⁻¹ to 1.07e+06 M⁻¹ s⁻¹ (13-fold).

B6 and B7 are within 1.5-fold of each other in kon: 986000 M⁻¹ s⁻¹ for the first, 1.07e+06 M⁻¹ s⁻¹ for the second.

In the case of B5, the Kd is reported as 0.22 nM and 0.23 nM.

In the case of B5, the koff is reported as 0.000288 s⁻¹ and 0.000276 s⁻¹.

In the case of B5, the kon is reported as 1.28e+06 M⁻¹ s⁻¹ and 1.22e+06 M⁻¹ s⁻¹.

Each binder was assayed against T3, Recombinant human EGFR-Fc (aa 1-645 of …) (assay: SPR Biacore, EGFR645-Fc).

First: B1
Second: B2
The Kd of the first is 2.2-fold lower: 4 nM for the first, 8.7 nM for the second. The first binds more tightly here.

Going from B3 to B4, the Kd falls from 17 nM to 1.7 nM (10-fold).

First: B6
Second: B7
The Kd of the first is 13-fold higher: 17.9 nM for the first, 1.4 nM for the second. The second binds more tightly here.

Going from B1 to B2, the koff rises from 0.000118 s⁻¹ to 0.000199 s⁻¹ (1.7-fold).

Compared with B3, B4 is 11-fold lower in koff: 0.000334 s⁻¹ for the first, 3.04e-05 s⁻¹ for the second.

Compared with B6, B7 is 4.3-fold lower in koff: 0.000193 s⁻¹ for the first, 4.52e-05 s⁻¹ for the second.

B1 and B2 are within 1.5-fold of each other in kon: 29400 M⁻¹ s⁻¹ for the first, 22800 M⁻¹ s⁻¹ for the second.

B3 and B4 are within 1.5-fold of each other in kon: 19600 M⁻¹ s⁻¹ for the first, 17800 M⁻¹ s⁻¹ for the second.

First: B6
Second: B7
The kon of the first is 3.1-fold lower: 10800 M⁻¹ s⁻¹ for the first, 33400 M⁻¹ s⁻¹ for the second.

Molecular target: T1, IGF-IR on human tumour cells (H292, …)
Experiment: cell-based or functional assay
Remark: another data set of the same source

B8 and B9 are within 1.5-fold of each other in “IC50, IGF1-stimulated IGFR phosphorylation, H292 cells, ELISA” value: 0.5 nM for the first, 0.7 nM for the second.

Molecular target: T2, EGFR on the surface of human tumour …
Experiment: cell-based or functional assay
Remark: another data set of the same source

B9 was tested, and the “IC50, EGF-induced EGFR phosphorylation, A431 cells, In Cell Western” value was 22 nM.

With B9 the “IC50, EGF-induced ERK phosphorylation, A431 cells, In Cell Western” value was 23 nM.

B9 was tested, and the “IC50, EGF-stimulated EGFR phosphorylation, H292 cells, ELISA” value was 8 nM.

What follows are binders tested against T2, EGFR on the surface of human tumour … (assay: not given).

Work on B9 yielded an IC50 of 37.8 nM.

The binders below were run against mouse EGFR (mouse, UniProt Q01279 25-647, limits assumed) (assay: SPR Biacore).

First: B8
Second: B9
The Kd of the first is 5.1-fold lower: 2.7 nM for the first, 13.9 nM for the second.

What follows are binders tested against monkey EGFR (monkey) (assay: SPR Biacore).

Compared with B8, B9 is 1.6-fold higher in Kd: 4.4 nM for the first, 7 nM for the second. The first binds more tightly here.

The binders below were run against rat EGFR (rat, UniProt A0ABK0LZB0 35-1214) (assay: SPR Biacore).

Going from B8 to B9, the Kd rises from 2.9 nM to 10.7 nM (3.7-fold).

The binders below were run against T4, IGF1R-Fc (extracellular domain of human …) (assay: SPR Biacore, IGF1R-Fc; against I1-GS10-E5 pegylated).

First: B1
Second: B2
The “ΔKd (fold)” value of the first is higher: 0.9 fold for the first, 0.4 fold for the second.

Compared with B3, B4 is higher in “ΔKd (fold)” value: 0.04 fold for the first, 1 fold for the second.

Going from B5 to B6, the “ΔKd (fold)” value falls from 1.1 fold to 0.9 fold.

With B7 the “ΔKd (fold)” value was 1 fold.

Compared with B1, B2 is lower in “Δka (fold)” value: 0.8 fold for the first, 0.3 fold for the second.

Going from B3 to B4, the “Δka (fold)” value rises from 0.1 fold to 1 fold.

First: B5
Second: B6
The “Δka (fold)” value of the first is higher: 1.2 fold for the first, 0.9 fold for the second.

For B7, the “Δka (fold)” value was 1 fold.

B1 and B2 are the same in “Δkd (fold)” value: 1.1 fold for the first, 1.1 fold for the second.

Compared with B3, B4 is higher in “Δkd (fold)” value: 0.4 fold for the first, 0.9 fold for the second.

B5 and B6 are the same in “Δkd (fold)” value: 0.9 fold for the first, 0.9 fold for the second.

For B7, the “Δkd (fold)” value was 1 fold.

What follows are binders tested against T3, Recombinant human EGFR-Fc (aa 1-645 of …) (assay: not given).

Work on B9 yielded a Kd of 5.97 nM.

Each binder was assayed against T4, IGF1R-Fc (extracellular domain of human …) (assay: not given).

In the case of B9, the Kd is reported as 0.43 nM.

What follows are binders tested against T3, Recombinant human EGFR-Fc (aa 1-645 of …) (assay: SPR Biacore).

Compared with B1, B2 is 2.2-fold higher in Kd: 4 nM for the first, 8.7 nM for the second.

Compared with B3, B4 is 10-fold lower in Kd: 17 nM for the first, 1.7 nM for the second.

First: B6
Second: B7
The Kd of the first is 13-fold higher: 17.9 nM for the first, 1.4 nM for the second.

Each binder was assayed against T4, IGF1R-Fc (extracellular domain of human …) (assay: SPR Biacore).

Compared with B1, B2 is 2.4-fold higher in Kd: 0.29 nM for the first, 0.7 nM for the second. The first binds more tightly here.

First: B3
Second: B4
The Kd of the first is 28-fold higher: 7.16 nM for the first, 0.26 nM for the second. The second binds more tightly here.

B5 and B6 are within 1.5-fold of each other in Kd: 0.23 nM for the first, 0.28 nM for the second.

With B7 the Kd was 0.25 nM.
